# From article PMC12216891 (Scientific Reports, 2025)
# B1: Thermochromatium tepidum form-IAq RuBisCO large subunit (RbcL) (natural protein, UniProt A0A6I6DX30 1-472, looked up)
# chain: MAKTYSAGVKEYRETYWMPNYTPKDTDILACFKITPQPGVPREEAAAAVAAESSTGTWTTVWTDLLTDLDYYKGRAYAIEDVPGDDTCFYAFIAYPIDLFEEGSVVNVFTSLVGNVFGFKAVRALRLEDVRFPIAYVMTCNGPPHGIQVERDILNKYGRPLLGCTIKPKLGLSAKNYGRAVYECLRGGLDFTKDDENVNSQPFMRWRQRFDFVMEAIDKAERETGERKGHYLNVTAPTPEEMYKRAEYAKEIGAPIIMHDYITGGFCANTGLAQWCRNNGVLLHIHRAMHAVLDRNPHHGIHFRVLTKILRLSGGDHLHTGTVVGKLEGDRQATLGWIDLLRESYVKEDRSRGIFFDQDWGAMPGAFAVASGGIHVWHMPALVTIFGDDSVLQFGGGTLGHPWGNAAGACANRVALEACIEARNQGIPIEKEGKEVLTKAAAHSPELKIAMETWKEIKFEFDSVDKLDVAHK
# Target: the molecule itself
# Experiment: cryo-EM structure
protein,measurement,value
B1,stoichiometry N,8
